Patent publication US20240270826A1 (NATIONAL RESEARCH COUNCIL OF CANADA, published 2024)
Like-named read-outs stand apart in the source and are kept apart here.

What was measured:
[1] = biological target: Human SARS-CoV-2_Wuhan S (SmT1) (SARS-CoV-2 (Wuhan), UniProt P0DTC2 14-1208); assay: tandem SPR, immobilized S, orientation 1: VHH alone
[2] = biological target: T1, SARS-CoV-2 S2 (aa686-1208) (Wuhan) (SARS-CoV-2 Wuhan, UniProt P0DTC2 686-1208); assay: SPR single-cycle kinetics, VHH over immobilized S2 [cont.]
T1 construct: NRC; FLAG, 6xHis tags

[3] = biological target: T2, SARS-CoV-2 spike trimer S (Wuhan, SmT1) (SARS-CoV-2 Wuhan); assay: SPR, antigen on chip
T2 construct: extracellular domain

[4] = biological target: T3, SARS-CoV-2 S1 (aa16-685) (Wuhan) (SARS-CoV-2 Wuhan, UniProt P0DTC2 16-685); assay: SPR, antigen on chip
T3 construct: NRC; FLAG, 6xHis tags

[5] = biological target: T1, SARS-CoV-2 S2 (aa686-1208) (Wuhan); assay: SPR, antigen on chip
[6] = biological target: T4, SARS-CoV-2 S1-RBD fused to human Fc (S1-RBD-Fc) (SARS-CoV-2 Wuhan; human); assay: SPR, antigen on chip
[7] = biological target: T1, SARS-CoV-2 S2 (aa686-1208) (Wuhan); assay: ELISA
[8] = biological target: SARS-CoV-2 S1-NTD (aa16-305) (SARS-CoV-2 Wuhan, UniProt P0DTC2 16-305); assay: ELISA
[9] = biological target: T5, SARS-CoV-2 S on CHO-S cells (SARS-CoV-2, UniProt P0DTC2 14-1273); assay: flow cytometry, CHO-S cells
T5 construct: whole, on cells

RBD (aa319-541) (Wuhan) [10] = biological target: T6, RBD (aa319-541) (Wuhan) (SARS-CoV-2 (Wuhan), UniProt P0DTC2 319-541); assay: SPR, RBD over captured VHH-Fc
RBD_SARS-CoV (aa306-527) = RBD_SARS-CoV (aa306-527) (SARS-CoV, UniProt P59594 306-527); assay: SPR, RBD over captured VHH-Fc
RBD (aa319-541) (Wuhan) [11] = biological target: T6, RBD (aa319-541) (Wuhan); assay: SPR, RBD over captured VHH-Fc (per Table 11 footnote)
[12] = biological target: T7, SARS-CoV-2 spike protein S on live virus, Wuhan (strain SARS-CoV-2/Canada/VIDO-01/2020) (SARS-CoV-2 (Wuhan), UniProt P0DTC2 14-1273); assay: cell-based or functional assay
[13] = biological target: T7, SARS-CoV-2 spike protein S on live …; assay: cell-based or functional assay; remark: listed apart in the source
[14] = biological target: T8, Human SARS-CoV-2_Wuhan S (SmT1) (SARS-CoV-2 (Wuhan), UniProt P0DTC2 14-1208); assay: flow cytometry SVNA, VHH-Fc vs biotin-S binding to Vero E6 ACE2
[15] = biological target: T8, Human SARS-CoV-2_Wuhan S (SmT1); assay: sandwich ELISA: biotin NRCoV2-02 VHH capture, antigen titrated, VHH-Fc detector
[16] = biological target: T9, SARS-CoV-2 S1-RBD (Wuhan) (SARS-CoV-2 (Wuhan), UniProt P0DTC2 319-541); assay: as above
T9 construct: domain: S1-RBD

[17] = biological target: T10, SARS-CoV-2 S1 (aa16-685) (Wuhan) (SARS-CoV-2 (Wuhan), UniProt P0DTC2 16-685); assay: as above
[18] = biological target: T8, Human SARS-CoV-2_Wuhan S (SmT1); assay: as above; remark: listed apart in the source
[19] = biological target: T9, SARS-CoV-2 S1-RBD (Wuhan); assay: as above; remark: listed apart in the source
[20] = biological target: T10, SARS-CoV-2 S1 (aa16-685) (Wuhan); assay: as above; remark: listed apart in the source
[21] = biological target: SARS-CoV-2 RBD (aa319-541) (Wuhan), monomeric (SARS-CoV-2 Wuhan, UniProt P0DTC2 319-541); assay: SPR, monomeric RBD over captured VHH-Fc
[22] = biological target: T2, SARS-CoV-2 spike trimer S (Wuhan, SmT1); assay: SPR, antigen on chip; remark: listed apart in the source
[23] = biological target: T3, SARS-CoV-2 S1 (aa16-685) (Wuhan); assay: SPR, antigen on chip; remark: listed apart in the source
[24] = biological target: T4, SARS-CoV-2 S1-RBD fused to human Fc …; assay: SPR, antigen on chip; remark: listed apart in the source
[25] = biological target: T2, SARS-CoV-2 spike trimer S (Wuhan, SmT1); assay: flow cytometry, inhibition of S binding to ACE2 on Vero E6 cells, monomeric VHH
[26] = biological target: T1, SARS-CoV-2 S2 (aa686-1208) (Wuhan); assay: SPR, antigen on chip; remark: listed apart in the source

B1: NRCoV2-02 VHH (VHH)
VHH: EVQLVESGGGLVQAGGSLRLSCAASGFTFSNYAMNWVRQAPGKGLEWVSGISGRGDDTRYADSVKGRFTISRDNAKNTLFLQMRSLRPEDTGVYRCTKGPDLYYFGSGYSDRGQGTQVTVSS
- End 1st inj (RU) [1]: 33 RU
- binding result [2]: no binding (tested: 10 nM)

B2: NRCoV2-MRed04 VHH (VHH)
VHH: EVQLVESGGGLVQPGRSLRLSCAASGNSFSISTMGWFRQAPGKERELVASIWSDTTTSYADSVKGRFTISTDNTRTKVYLQMSSLNPEDTAVYYCAADRGFVVRGQYDYWGQGTQVTVSS
- Kd [3]: 1.09 nM
- koff [3]: 0.0015 s⁻¹
- kon [3]: 1.39e+06 M⁻¹ s⁻¹
- Kd [4]: 1.68 nM
- koff [4]: 0.00183 s⁻¹
- kon [4]: 1.09e+06 M⁻¹ s⁻¹
- binding result [5]: no binding
- Kd [6]: 2.06 nM
- koff [6]: 0.00176 s⁻¹
- kon [6]: 855000 M⁻¹ s⁻¹

B3: NRCoV2-12 VHH-Fc (Fc fusion)
chain: EVQLQQSGGGLVQAGGSLRLSCAASGRTFRNYVMGWFRQAPQAPGKDHEFVAAISWGGTEIYYADSVKGRFTISRDNAKNTVYLQMNSLKPEDTAVYYCAADRGLSYYYTRTTEYNYWGQGTQVTVSS
- binding result [7]: no binding (tested: 13 nM)
- binding result [8]: no binding (tested: 13 nM)
- Bmax [9]: 21800
- EC50 [9]: 0.8 nM
- Kd (RBD (aa319-541) (Wuhan) [10]): 0.0469 nM
- koff (RBD (aa319-541) (Wuhan) [10]): 3.5e-05 s⁻¹
- kon (RBD (aa319-541) (Wuhan) [10]): 747000 M⁻¹ s⁻¹
- Kd (RBD_SARS-CoV (aa306-527)): 2.69 nM
- koff (RBD_SARS-CoV (aa306-527)): 0.00101 s⁻¹
- kon (RBD_SARS-CoV (aa306-527)): 376000 M⁻¹ s⁻¹
- Kd (RBD (aa319-541) (Wuhan) [11]): 0.047 nM

B4: NRCoV2-1d VHH-Fc (Fc fusion)
chain: EVQLVESGGGSVQPGGSLRLSCAASGSTLDYYAIGWFRQAPGKEREWVSSVSSSDGNTLYADSVKGRFTISRDNAKNTVYLQMNSLKAEDTAVYVCAADYSMRPFAVGRWHRDYEYWGQGTQVTVSS
notes: bivalent VHH-Fc
- MN100 [12]: 0.25 nM
- LVNA IC50 [13]: 1.94 nM
- IC50 [14]: 5.4 nM
- IC99 [14]: 42 nM
- Imax % [14]: 89%
- SC50 [15]: 25 ng/mL
- SC50 [16]: 1.7 ng/mL
- SC50 [17]: 16 ng/mL
- Limit of detection [18]: 1.4 ng/mL
- Limit of detection [19]: 0.15 ng/mL
- Limit of detection [20]: 1.37 ng/mL

B5: NRCoV2-MRed05 VHH-Fc (Fc fusion)
chain: EVQLVESGGGLVQPGGSLRLSCAASGFTLDYYAIGWFRQAPGKEREGVSCISSSDGSTLYADSVKGRFTISRDNAKNTVYLQMNSLKPEDTAVYYCATGPQAYYSGSYYFQCPQAGMDYWGKGTQVTVSS
notes: bivalent
- Kd [21]: 0.763 nM
- koff [21]: 0.000496 s⁻¹
- kon [21]: 650000 M⁻¹ s⁻¹

B6: NRCoV2-11 VHH-Fc (Fc fusion)
chain: EVQLVSSGGGLVQPGGSLRLSCAASGSSLDSYSVSWFRQAPGKEREWISFISRYYSSTYYTDSVKGRFTTSRDGDQKTVHLQMNSLKPEDTAVYYCAARSRDFSSPFSATDTYTSWGQGTQVTVSS
notes: bivalent VHH-Fc
- LVNA IC50 [13]: 9.9 nM
- IC50 [14]: 9.7 nM
- IC99 [14]: 99.8 nM
- Imax % [14]: 63%
- SC50 [15]: 20 ng/mL
- SC50 [16]: 0.8 ng/mL
- SC50 [17]: 6 ng/mL
- Limit of detection [18]: 1.4 ng/mL
- Limit of detection [19]: 0.08 ng/mL
- Limit of detection [20]: 0.46 ng/mL

B7: NRCoV2-11 VHH (VHH)
VHH: B6 chain
- Kd [22]: 0.0391 nM
- koff [22]: 4.73e-05 s⁻¹
- kon [22]: 1.21e+06 M⁻¹ s⁻¹
- Kd [23]: 0.167 nM
- koff [23]: 0.00018 s⁻¹
- kon [23]: 1.08e+06 M⁻¹ s⁻¹
- Kd [24]: 0.253 nM
- koff [24]: 0.000226 s⁻¹
- kon [24]: 892000 M⁻¹ s⁻¹
- IC50 [25]: 16.8 nM

B8: NRCoV2-07 VHH-Fc (Fc fusion)
chain: QVQLVQSGGGLVQPGGSLRLSCAASGVTLDYYAIGWFRQAPGKEREAVSCISSNGRRNHYVASVRGRFTISRDNAKSTVYLQMNSLKPEDTAVYYCAAVQDVHGDNYYCTSPNEYNVWGQGTQVTVSS
notes: bivalent VHH-Fc
- MN100 [12]: 1.25 nM
- LVNA IC50 [13]: 6.15 nM
- IC50 [14]: 6.8 nM
- IC99 [14]: 98.9 nM
- Imax % [14]: 89%
- SC50 [15]: 18 ng/mL
- SC50 [16]: 0.7 ng/mL
- SC50 [17]: 5 ng/mL
- Limit of detection [18]: 1.4 ng/mL
- Limit of detection [19]: 0.08 ng/mL
- Limit of detection [20]: 0.46 ng/mL

B9: NRCoV2-17 VHH (VHH)
VHH: EVQLQQSGGGLVQTGGSLRLSCAAAGSPFSQLAMSWYRQISGKERAWVASISPTGNRSYSKIAKGRFTISRDNAKNTVTLQMTSLKPEDTAAYICQAANVNGGDYWGQGTQVTVSS
- Kd [22]: 0.149 nM
- koff [22]: 9.79e-05 s⁻¹
- kon [22]: 659000 M⁻¹ s⁻¹
- Kd [23]: 0.153 nM
- koff [23]: 9.66e-05 s⁻¹
- kon [23]: 629000 M⁻¹ s⁻¹
- binding result [26]: no binding
- Kd [24]: 0.395 nM
- koff [24]: 0.000224 s⁻¹
- kon [24]: 567000 M⁻¹ s⁻¹
- IC50 [25]: 9.4 nM

B10: NRCoV2-SR03 VHH (VHH)
VHH: AVQLVDSGGGLVQAGGSLRLSCAASGSIFSNNHMGWYRQAPGKQRELVAAISSGGKTNYADFAKGRFTISRDNAKNMVYLQMNSLKPEDTAVYYCNRGGWEYRSSYYIMGPHWGQGTQVTVSS
- End 1st inj (RU) [1]: 18.5 RU
- binding result [2]: no binding (tested: 20 nM)

B11: NRCoV2-04 VHH-Fc (Fc fusion)
chain: AVQLVDSGGGLVQPGGSLRLSCAASGSPFSNVVMAWYRQAPGKQRERVAFISGGGIADYIMSVKGRFTISRDNAKNTVYLQMNSLKPEDTAVYYCWSSYESTWGQGTQVTVSS
notes: bivalent VHH-Fc
- MN100 [12]: 1.25 nM
- LVNA IC50 [13]: 1.65 nM
- IC50 [14]: 11.7 nM
- IC99 [14]: 420 nM
- Imax % [14]: 51%
- SC50 [15]: 39 ng/mL
- SC50 [16]: 3.3 ng/mL
- SC50 [17]: 25 ng/mL
- Limit of detection [18]: 4.1 ng/mL
- Limit of detection [19]: 0.46 ng/mL
- Limit of detection [20]: 4.12 ng/mL
